Measured values taken from patent US20190106460A1, “BINDING INHIBITORS OF THE BETA. TRANSDUCIN REPEAT-CONTAINING PROTEIN” (priority 2011, published 2019).
Starred links: 1 amine or outer side, 2 acyl side, 3 side chain; linkers in the order of their positions; H or OH if unused. Suc = O=C(CCC(=O)[*:2])[*:1]

How the values were obtained:
[1] = target: βTrCP (tag cleaved and complexed with Skp1) (UniProt Q9Y297); assay: FP competition vs fluorescein-IκB peptide
[2] = target: βTrCP (tag cleaved and complexed with Skp1) (UniProt Q9Y297); assay: FP competition, 10 nM fluorescein-IκB peptide on βTrCP/Skp1
[3] = target: HisβTrCP/Skp1 and HisβTrCP/GSTSkp1 (immobilised on NTA Biacore chip) (UniProt Q9Y297); assay: SPR, Biacore T200, βTrCP/Skp1 immobilised
HisβTrCP/Skp1 and HisβTrCP/GSTSkp1 (immobilised on NTA Biacore chip), sequence (Q9Y297 175-605, chain 1 of 2): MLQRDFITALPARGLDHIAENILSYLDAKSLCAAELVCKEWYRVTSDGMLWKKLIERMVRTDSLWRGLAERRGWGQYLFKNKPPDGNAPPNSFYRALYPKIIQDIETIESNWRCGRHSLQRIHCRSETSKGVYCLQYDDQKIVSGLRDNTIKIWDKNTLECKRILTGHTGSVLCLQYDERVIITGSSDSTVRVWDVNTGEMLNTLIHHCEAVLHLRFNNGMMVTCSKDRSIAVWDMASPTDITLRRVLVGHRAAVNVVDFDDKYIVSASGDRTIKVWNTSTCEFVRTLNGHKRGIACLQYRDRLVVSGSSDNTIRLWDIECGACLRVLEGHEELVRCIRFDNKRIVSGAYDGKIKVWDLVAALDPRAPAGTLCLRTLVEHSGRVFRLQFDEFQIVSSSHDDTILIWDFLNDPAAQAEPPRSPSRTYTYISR
HisβTrCP/Skp1 and HisβTrCP/GSTSkp1 (immobilised on NTA Biacore chip), sequence (P63208 whole entry, chain 2 of 2, further chain): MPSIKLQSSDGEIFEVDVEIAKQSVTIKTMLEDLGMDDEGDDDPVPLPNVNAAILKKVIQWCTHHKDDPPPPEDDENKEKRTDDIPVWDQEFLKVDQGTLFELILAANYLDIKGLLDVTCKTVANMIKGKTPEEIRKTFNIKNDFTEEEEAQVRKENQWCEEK

[4] = target: βTrCP (tag cleaved and complexed with Skp1) (UniProt Q9Y297); assay: FP competition vs fluorescein-IκB peptide; remark: listed apart in the source
[5] = target: βTrCP (tag cleaved and complexed with Skp1) (UniProt Q9Y297); assay: FP competition vs fluorescein-IκB peptide; Table 7: peptide selected from the arrays of Tables 5 and 6, re-synthesised; FP assay

βTrCP (tag cleaved and complexed with Skp1), sequence (Q9Y297 175-605, chain 1 of 2): as the sequence (Q9Y297 175-605, chain 1 of 2) above
βTrCP (tag cleaved and complexed with Skp1), sequence (P63208 whole entry, chain 2 of 2, further chain): as the sequence (P63208 whole entry, chain 2 of 2, further chain) above

| IC50 [1] [nM] | Kd [3] [nM] | Substance | further results |
| --- | --- | --- | --- |
| 3630 | – | Suc-EG-3Pal-1Nal-E-NH2 (peptide) | – |
| – | – | E-pS-GIFE-NH2 (peptide) | IC50 [2]: 34500 nM |
| 2070 | 17700 | Suc-EGYF(4NO2)E-NH2 (peptide) | – |
| 1210 | 507 | Suc-EGF(4F)F(4NO2)E-NH2 (peptide) | IC50 [4]: 1200 nM |
| 8010 | – | Suc-AG-F(3F)-F(4NO2)-E-NH2 (peptide) | – |
| – | – | Suc-EG-F(3F)-3Pal-NH2 (peptide) | IC50 [4]: 70000 nM |
| 4910 | 8000 | Suc-EGF(2F)F(4NO2)E-NH2 (peptide) | IC50 [4]: 4900 nM |
| 1600 | – | (MeO)Suc-EG-F(3F)-1Nal-E-NH2 (peptide) | – |
| 522 | 4530 | Suc-EGF(3F)F(4NO2)E-NH2 (peptide) | IC50 [4]: 520 nM |
| 1310 | 1960 | Suc-EGF(4NO2)1NalE-NH2 (peptide) | – |
| 1150 | 1490 | Suc-EGY1NalE-NH2 (peptide) | – |
| 2560 | 5490 | Suc-QGF(3F)F(4NO2)E-NH2 (peptide) | – |
| 1240 | 1480 | DpSGIFE-NH2 (peptide) | – |
| 521 | 400 | Suc-EGF(3F)HE-NH2 (peptide) | – |
| – | – | EAFFE-NH2 (peptide) | IC50 [5]: 28000 nM |
| 82100 | – | Suc-EAYFE-NH2 (peptide) | – |

| IC50 [1] [nM] | Kd [3] [nM] | Substance | further results |
| --- | --- | --- | --- |
| 95 | 455 | Suc-EGF(3F)WE-NH2 (peptide) | – |
| 1400 | – | Suc-EG-F(3F)-Y(Me)-E-NH2 (peptide) | – |
| 22200 | – | Suc-AGYFE-NH2 | – |
| 27500 | – | Suc-EA-F(3F)-F(4NO2)-E-NH2 (peptide) | – |
| 10000 | – | Suc-QGFFE-NH2 | – |
| 157 | 320 | Suc-EGF(3F)1NalE-NH2 (peptide) | – |
| 60400 | – | Fum-EG-F(3F)-F(4NO2)-E-NH2 (peptide) | – |
| – | – | Suc-EG-F(4NO2)-1Nal-NH2 (peptide) | IC50 [4]: 14000 nM |
| 7220 | – | Suc-EG-F(3F)-1Nal-Q-NH2 (peptide) | – |
| 3280 | 4400 | Suc-EGF(2F)Y(Me)E-NH2 (peptide) | IC50 [4]: 3200 nM |
| 59800 | – | Suc-EAFFE-NH2 (peptide) | – |
| 2170 | 1460 | Mal-EGF(3F)F(4NO2)E-NH2 (peptide) | – |
| 15100 | – | Suc-EGI-1Nal-E-NH2 (peptide) | – |
| 10700 | – | Suc-QGYFE-NH2 | – |
| – | – | D-pS-GIFE-NH2 (peptide) | IC50 [2]: 1240 nM |
